Results published in PMC12102759 (2025).

B1: CBL peptide 540-555 (E3 ubiquitin-protein ligase CBL), 16-mer library wild type / YES SH3 (YES1 SH3 domain, residues 90-152) (parent complex)
chain 1: RDLPPPPPPDRPYSVG
chain 2: not shown

Variants of: B1
Experiment: proteomic peptide phage display deep mutational scan (ProP-PD DMS): M13 P8 16-mer library selected against immobilised GST-tagged bait for four days (rounds), NGS of the eluted pools per day and pseudo-replica; bait immobilised on MaxiSorp plates (10 µg), library pre-cleared on GST, 2 h binding at 4 °C, five washes; one round per day, days 1-4; value from days 2 and 3

Q: Which screen value does the source give for chain 1 P9W here?
A: 0.00602 average fractional NGS count over selection days 2 and 3 (reads of this peptide / all reads for the bait, averaged over …

Q: Which screen value does the source give for chain 1 D10N here?
A: 0.000163 average fractional NGS count over selection days 2 and 3 (reads of this peptide / all reads for the bait, averaged over …

Q: With chain 1 R11T as the variant, how does the screen value read?
A: 0.00408 average fractional NGS count over selection days 2 and 3 (reads of this peptide / all reads for the bait, averaged over …

Q: How did the screen value turn out when chain 1 R1M was run?
A: 0.00223 average fractional NGS count over selection days 2 and 3 (reads of this peptide / all reads for the bait, averaged over …

Q: Which screen value does the source give for chain 1 P5H here?
A: 0.00214 average fractional NGS count over selection days 2 and 3 (reads of this peptide / all reads for the bait, averaged over …

Q: Which screen value does the source give for chain 1 L3E here?
A: 5.03e-05 average fractional NGS count over selection days 2 and 3 (reads of this peptide / all reads for the bait, averaged over …

Q: With chain 1 P6V as the variant, how does the screen value read?
A: 0.0162 average fractional NGS count over selection days 2 and 3 (reads of this peptide / all reads for the bait, averaged over …

Q: With chain 1 P5W as the variant, how does the screen value read?
A: 0.000217 average fractional NGS count over selection days 2 and 3 (reads of this peptide / all reads for the bait, averaged over …

Q: chain 1 Y13R was tested. Which screen value did it give?
A: 0.000326 average fractional NGS count over selection days 2 and 3 (reads of this peptide / all reads for the bait, averaged over …

Q: chain 1 R11V was tested. Which screen value did it give?
A: 0.00622 average fractional NGS count over selection days 2 and 3 (reads of this peptide / all reads for the bait, averaged over …

Q: chain 1 P5S was tested. Which screen value did it give?
A: 0.00042 average fractional NGS count over selection days 2 and 3 (reads of this peptide / all reads for the bait, averaged over …

Q: For chain 1 D10K, which screen value is on record?
A: 0.00142 average fractional NGS count over selection days 2 and 3 (reads of this peptide / all reads for the bait, averaged over …

Q: With chain 1 R11F as the variant, how does the screen value read?
A: 0.00146 average fractional NGS count over selection days 2 and 3 (reads of this peptide / all reads for the bait, averaged over …

Q: How did the screen value turn out when chain 1 D10V was run?
A: 0.000894 average fractional NGS count over selection days 2 and 3 (reads of this peptide / all reads for the bait, averaged over …

Q: With chain 1 P4Q as the variant, how does the screen value read?
A: 0.000154 average fractional NGS count over selection days 2 and 3 (reads of this peptide / all reads for the bait, averaged over …

Q: With chain 1 V15N as the variant, how does the screen value read?
A: 0.00181 average fractional NGS count over selection days 2 and 3 (reads of this peptide / all reads for the bait, averaged over …

Q: Which screen value does the source give for chain 1 P7Y here?
A: 0.000167 average fractional NGS count over selection days 2 and 3 (reads of this peptide / all reads for the bait, averaged over …

Q: With chain 1 S14A as the variant, how does the screen value read?
A: 0.00883 average fractional NGS count over selection days 2 and 3 (reads of this peptide / all reads for the bait, averaged over …

Q: With chain 1 P9D as the variant, how does the screen value read?
A: 0.00109 average fractional NGS count over selection days 2 and 3 (reads of this peptide / all reads for the bait, averaged over …

Q: With chain 1 P8W as the variant, how does the screen value read?
A: 0.00267 average fractional NGS count over selection days 2 and 3 (reads of this peptide / all reads for the bait, averaged over …

Q: For chain 1 D2E, which screen value is on record?
A: 0.0027 average fractional NGS count over selection days 2 and 3 (reads of this peptide / all reads for the bait, averaged over …

Q: Which screen value does the source give for chain 1 Y13G here?
A: 8.54e-05 average fractional NGS count over selection days 2 and 3 (reads of this peptide / all reads for the bait, averaged over …

Q: With chain 1 R1Q as the variant, how does the screen value read?
A: 7.8e-05 average fractional NGS count over selection days 2 and 3 (reads of this peptide / all reads for the bait, averaged over …

Q: With chain 1 S14H as the variant, how does the screen value read?
A: 0.000385 average fractional NGS count over selection days 2 and 3 (reads of this peptide / all reads for the bait, averaged over …

Q: chain 1 P4H was tested. Which screen value did it give?
A: 8.18e-05 average fractional NGS count over selection days 2 and 3 (reads of this peptide / all reads for the bait, averaged over …

Q: For chain 1 P5L, which screen value is on record?
A: 0.00149 average fractional NGS count over selection days 2 and 3 (reads of this peptide / all reads for the bait, averaged over …

Q: With chain 1 L3M as the variant, how does the screen value read?
A: 0.00032 average fractional NGS count over selection days 2 and 3 (reads of this peptide / all reads for the bait, averaged over …

Q: With chain 1 P8N as the variant, how does the screen value read?
A: 0.00013 average fractional NGS count over selection days 2 and 3 (reads of this peptide / all reads for the bait, averaged over …

Q: chain 1 D10E was tested. Which screen value did it give?
A: 0.0012 average fractional NGS count over selection days 2 and 3 (reads of this peptide / all reads for the bait, averaged over …

Q: Which screen value does the source give for chain 1 P7I here?
A: 0.000596 average fractional NGS count over selection days 2 and 3 (reads of this peptide / all reads for the bait, averaged over …

Q: Which screen value does the source give for chain 1 D10P here?
A: 0.000173 average fractional NGS count over selection days 2 and 3 (reads of this peptide / all reads for the bait, averaged over …

Q: For chain 1 P7E, which screen value is on record?
A: 0.000775 average fractional NGS count over selection days 2 and 3 (reads of this peptide / all reads for the bait, averaged over …

Q: With chain 1 P5F as the variant, how does the screen value read?
A: 0.00079 average fractional NGS count over selection days 2 and 3 (reads of this peptide / all reads for the bait, averaged over …

Q: For chain 1 P8S, which screen value is on record?
A: 0.00243 average fractional NGS count over selection days 2 and 3 (reads of this peptide / all reads for the bait, averaged over …

Q: Which screen value does the source give for chain 1 R11H here?
A: 0.000484 average fractional NGS count over selection days 2 and 3 (reads of this peptide / all reads for the bait, averaged over …

Q: With chain 1 L3S as the variant, how does the screen value read?
A: 6.99e-05 average fractional NGS count over selection days 2 and 3 (reads of this peptide / all reads for the bait, averaged over …

Q: For chain 1 P7N, which screen value is on record?
A: 0.000153 average fractional NGS count over selection days 2 and 3 (reads of this peptide / all reads for the bait, averaged over …

Q: How did the screen value turn out when chain 1 V15L was run?
A: 0.000286 average fractional NGS count over selection days 2 and 3 (reads of this peptide / all reads for the bait, averaged over …

Q: With chain 1 P7Q as the variant, how does the screen value read?
A: 0.000262 average fractional NGS count over selection days 2 and 3 (reads of this peptide / all reads for the bait, averaged over …

Q: chain 1 R11G was tested. Which screen value did it give?
A: 0.00318 average fractional NGS count over selection days 2 and 3 (reads of this peptide / all reads for the bait, averaged over …

Q: How did the screen value turn out when chain 1 P5A was run?
A: 0.000329 average fractional NGS count over selection days 2 and 3 (reads of this peptide / all reads for the bait, averaged over …

Q: For chain 1 R1H, which screen value is on record?
A: 0.0063 average fractional NGS count over selection days 2 and 3 (reads of this peptide / all reads for the bait, averaged over …

Q: chain 1 D10I was tested. Which screen value did it give?
A: 0.000128 average fractional NGS count over selection days 2 and 3 (reads of this peptide / all reads for the bait, averaged over …

Q: For chain 1 P7W, which screen value is on record?
A: 0.000156 average fractional NGS count over selection days 2 and 3 (reads of this peptide / all reads for the bait, averaged over …

Q: For chain 1 V15T, which screen value is on record?
A: 0.000212 average fractional NGS count over selection days 2 and 3 (reads of this peptide / all reads for the bait, averaged over …

Q: Which screen value does the source give for chain 1 Y13E here?
A: 0.000222 average fractional NGS count over selection days 2 and 3 (reads of this peptide / all reads for the bait, averaged over …

Q: Which screen value does the source give for chain 1 P8F here?
A: 0.00526 average fractional NGS count over selection days 2 and 3 (reads of this peptide / all reads for the bait, averaged over …

Q: For chain 1 S14Y, which screen value is on record?
A: 0.00258 average fractional NGS count over selection days 2 and 3 (reads of this peptide / all reads for the bait, averaged over …

Q: Which screen value does the source give for chain 1 P12A here?
A: 0.00443 average fractional NGS count over selection days 2 and 3 (reads of this peptide / all reads for the bait, averaged over …

Q: How did the screen value turn out when chain 1 V15E was run?
A: 0.00362 average fractional NGS count over selection days 2 and 3 (reads of this peptide / all reads for the bait, averaged over …

Q: With chain 1 P6N as the variant, how does the screen value read?
A: 0.000163 average fractional NGS count over selection days 2 and 3 (reads of this peptide / all reads for the bait, averaged over …

Q: chain 1 R11S was tested. Which screen value did it give?
A: 0.000485 average fractional NGS count over selection days 2 and 3 (reads of this peptide / all reads for the bait, averaged over …

Q: chain 1 R1N was tested. Which screen value did it give?
A: 0.00136 average fractional NGS count over selection days 2 and 3 (reads of this peptide / all reads for the bait, averaged over …

Q: How did the screen value turn out when chain 1 P4T was run?
A: 0.00019 average fractional NGS count over selection days 2 and 3 (reads of this peptide / all reads for the bait, averaged over …

Q: chain 1 P5Y was tested. Which screen value did it give?
A: 0.000822 average fractional NGS count over selection days 2 and 3 (reads of this peptide / all reads for the bait, averaged over …

Q: With chain 1 Y13I as the variant, how does the screen value read?
A: 0.00384 average fractional NGS count over selection days 2 and 3 (reads of this peptide / all reads for the bait, averaged over …

Q: chain 1 P12F was tested. Which screen value did it give?
A: 0.00458 average fractional NGS count over selection days 2 and 3 (reads of this peptide / all reads for the bait, averaged over …

Q: With chain 1 P8A as the variant, how does the screen value read?
A: 0.00106 average fractional NGS count over selection days 2 and 3 (reads of this peptide / all reads for the bait, averaged over …

Q: How did the screen value turn out when chain 1 P7K was run?
A: 0.000178 average fractional NGS count over selection days 2 and 3 (reads of this peptide / all reads for the bait, averaged over …

Q: chain 1 P4I was tested. Which screen value did it give?
A: 0.000839 average fractional NGS count over selection days 2 and 3 (reads of this peptide / all reads for the bait, averaged over …

Q: Which screen value does the source give for chain 1 P12Y here?
A: 0.000171 average fractional NGS count over selection days 2 and 3 (reads of this peptide / all reads for the bait, averaged over …

Q: chain 1 P5T was tested. Which screen value did it give?
A: 0.00773 average fractional NGS count over selection days 2 and 3 (reads of this peptide / all reads for the bait, averaged over …

Q: With chain 1 P5G as the variant, how does the screen value read?
A: 0.00951 average fractional NGS count over selection days 2 and 3 (reads of this peptide / all reads for the bait, averaged over …

Q: Which screen value does the source give for chain 1 D10Q here?
A: 0.000233 average fractional NGS count over selection days 2 and 3 (reads of this peptide / all reads for the bait, averaged over …

Q: Which screen value does the source give for chain 1 S14Q here?
A: 0.000166 average fractional NGS count over selection days 2 and 3 (reads of this peptide / all reads for the bait, averaged over …

Q: How did the screen value turn out when chain 1 L3I was run?
A: 0.00353 average fractional NGS count over selection days 2 and 3 (reads of this peptide / all reads for the bait, averaged over …

Q: chain 1 R1I was tested. Which screen value did it give?
A: 0.00103 average fractional NGS count over selection days 2 and 3 (reads of this peptide / all reads for the bait, averaged over …

Q: How did the screen value turn out when chain 1 P7L was run?
A: 0.00235 average fractional NGS count over selection days 2 and 3 (reads of this peptide / all reads for the bait, averaged over …

Q: Which screen value does the source give for chain 1 V15P here?
A: 0.00539 average fractional NGS count over selection days 2 and 3 (reads of this peptide / all reads for the bait, averaged over …

Q: With chain 1 R11E as the variant, how does the screen value read?
A: 0.000556 average fractional NGS count over selection days 2 and 3 (reads of this peptide / all reads for the bait, averaged over …

Q: Which screen value does the source give for chain 1 S14L here?
A: 0.0182 average fractional NGS count over selection days 2 and 3 (reads of this peptide / all reads for the bait, averaged over …

Q: For chain 1 D2V, which screen value is on record?
A: 0.00212 average fractional NGS count over selection days 2 and 3 (reads of this peptide / all reads for the bait, averaged over …

Q: How did the screen value turn out when chain 1 L3N was run?
A: 7.55e-05 average fractional NGS count over selection days 2 and 3 (reads of this peptide / all reads for the bait, averaged over …

Q: For chain 1 Y13Q, which screen value is on record?
A: 0.00091 average fractional NGS count over selection days 2 and 3 (reads of this peptide / all reads for the bait, averaged over …

Q: chain 1 P9K was tested. Which screen value did it give?
A: 0.00297 average fractional NGS count over selection days 2 and 3 (reads of this peptide / all reads for the bait, averaged over …
